In a protein production outcome set (Wang et al. 2014):

Test: label from the status in PepcDB records

Sequence | protein production
MGSIDRYIFRTTLASFALVLVSLTGVIWITQALRGIDLMTSQGQTILTFLGITSLVVPALVLIISPIALMIAISHTLNKLATDSEIIVMNAAGFSPFRLFYPFFYATCVVALLVAFIAAYLAPDGMRRIKQWDAEITADVLTNILQPGRFAQLDKNLTIRIRERLPGGILAGIFIDDRRDPNERVSIVAEHGEVMKNDTGSFLVLETGNLQRFEVGKRDPALVAFGRYGFDMSKFSGQGRDVTLGIRERYLWELFSPSEDDPVYKQIPGQFRSALHDSLLAPIYPFAFAVLTFAFLGAPRTTRQSRNFSIGSSIVAVFGLRMAGFACSVMAVKSPAAVLVQYAMVLGAIGVGMWMIVGGIVVEPPPRLMEAINRSNARIARLFGRPATA | failed
MGSLVHVKEATVITPSDQTPSSVLSLSALDSQLFLRFTIEYLLVYPPVSDPEYSLSGRLKSALSRALVPYFPFSGRVREKPDGGGGLEVNCRGQGALFLEAVSDILTCLDFQKPPRHVTSWRKLLSLHVIDVLAGAPPLVVQLTWLRDGGAALAVGVNHCVSDGIGSAEFLTLFAELSKDSLSQTELKRKHLWDRQLLMPSPIRDSLSHPEFNRVPDLCGFVNRFNAERLVPTSVVFERQKLNELKKLASRLGEFNSKHTSFEVLSAHVWRSWARSLNLPSNQVLKLLFSVNIRDRVKPSLPSGFYGNAFVVGCAQTTVKDLTEKGLSYATMLVKQAKERVGDEYVRSVVEAVSKERASPDSVGVLILSQWSRLGLEKLDFGLGKPVHVGSVCCDRYCLLLPIPEQNDAVKVMVAVPSSSVDTYENLVTSPNA | failed
MGSRDLISSLPDEILGKVLSLLPTKRAASTAVLSKRWNNLPALVDKLDINDAIGGPGGFPEFIDKTLALLTNSTTIKRTSLNNEFQYGESQVNTWIRSFLERGCLQLYLNAQSLYTIDTEFFTSNTLVELTITGGFSPDGLLPPGGVFFPKLKTLSLVLMTFVDSDMYELFISGCPLLEEFLLRNDEIEIPPVWNALVSSPSIKRLTIVHHFPNYREAHDGCWFRTPNLVYLDYSSYVPDWYEVDLGSLVEARLDLRSWERLRDEKAGGYGDCDSVYDDEEYPDDPILGDVTNLVTGLSNIKTLHLSPDSLEVFYFCCKSMPVFHNLLTLSFESAKKEAGQCCHFSSISLLT | failed
MGSSARFRGRTDTMLLTRFNPENGTITVLSIPRDTRVEIPGYGTSKINAANVYGDVELTVQVVSQTLNYTPIDRYIRINTDAFRELVDLVGGVEVNVPKRMVYTDHTQKLYIDLQPGLQTLNGEQAEGFVRFRYDELGDIGRAQRQQLLIKALQEKLANPVMLTQLPKLYSVLQKYVDTDLTFAELMAIAQFSLRIQPDNLHLILLPGHFSGDGYGTSYWLPDYDRIDRVVAEHFSDRPSKLVDQRGSETGTLRIALQNASGSSGAAQDMADFLARHGYTNVLISEDWYQQTSETEIVAQQGDLGAAQVIRSVLGMGRVSANSTGVLSSDITIRIGRDWAAVLHLEHHHHHH | failed
MGSSGDLANSAERKLDDEKKRCDWRFTDNTPLIAACLLTGAVVLGVHYISICKDRTDISLPTLMESIESKCRSLGDAFNASAPESVLHPVPTQIGVAIWVAREEWSLPVHDTLDRIEKVVSGAGNRKQQFIQRIVRVSQLGSDGNLEKSSSSSTKWGGSSKVSQDPLANAAIKQQLGLSVAKHAYAVSLKEELLMHTISFFAAPPSAAKSVRCFLFDDKRAYCTVSTEMGMETTKREVEAAVATLLANWLEIENFRDANATQRWAMMRKVRGCHYALRALRQLKMSVDAHPEMPVPEGVRGAADRLEKLVRESDFAKLARAAADLQFHQLLLPQIYIPWDQAVVNHLSILMPVYGVITLAVRLIKENRKRAQVVQNS | failed
MGSSHHHHHHSSGRENLYFQGVKSEDQLVHICSREEWRTAEREGSRVPATFRADGFVHLSTPAQVHLPANRLFAGRTDLVLLRLDPTALGAPVKWEPGVPADPASMLFPHLYGPLPVAAVTGVEEYRPDADGTFPARR | not failed
MGSSLSNLNDGTNGLAMGPGLGDIPESCVACVFMYLTPPEICNLAGLNRSFRGAASSDSVWEKKLPENYQDLLDLLPPERYHSLSKKDIFAVLSRPIPFDDDNKEVWIDRVTGRVCMAISARGMSITGIEDRRYWNWIPTEESRFHVVAYLQQIWWFEVDGTVRFHLPPGVYSLSFRIHLGRFTKRLGRRVCHFELTHGWDLKPVRFSLSTSDGQEASCEYYLDDVERNEALGKHKRGYWIEYRVGEFIVNGSEPSTEIQWSMKQIDCTHSKGGLCVDSVFINPIGDVKEHKRKAVLKEA | failed
MGSSMEEKVVAVIMVGGPTKGTRFRPLSLNIPKPLFPIAGQPMVHHPISACKRIPNLAQIYLVGFYEEREFALYVSAISNELKVPVRYLREDKPHGSAGGLYHFRNLIMEDSPSHIFLLNCDVCCSFPLPKMLEAHRGYGGIGTLLVIKVSPESASQFGELVADPVTNELLHYTEKPETFVSDRINCGVYVFTPEIFNAIGDVSTQRKDRATLKRVSSFEALQPATRIPTDFVRLDQDILSPLAGKKRLYTYETMDFWEQIKSPGMSLRCSGLYLSQFRLTSPQLLASGDGTRSAIVIGDVYIHPSAKVHPTAKIGPNVSISANARVGPGVRLMSCIILDDVEIMENAVVTNAIVGWKSSIGRWSRVQAEGVYNSKLGVTILGDSVAVEDEVVVTSSIVLPNKTLNVSVQDEIIL | failed
MGTAWNYPDLGSKNPMSGMVQSETAVIGGAGNVGMGIVAALLDAGMPTVVIGRDAAKLDALRAQHGHSPLLDIVQGSVADDASARRLATELAQRHRPLGAVIASLGSPPKAGRLLDRPVAVLRRRLERDVLPHLAAARHLLPLLAEADGGGRYLLLGSPCALRAWSAHGDRSVAASATRMLAQVLHEEAKPLGVRVQLLSVEQPVCTPGRAKDACPEWIRAVDVGRAAVSLIAGPGQPGQAIVTVSRRPHAAPSASRLAGLHVSIPTREISP | failed
MGTGEKTLKSFQLHRKQSVKVKDVPKGCLAIKVGSQGEEQQRFIVPVLYFNHPLFMQLLKEAEDEYGFDQKGTITIPCHVEEFRYVQALIDGERSVYNGNNHHHRHGGRDQYHHLVGCFRA | failed
MGTIGAAGCTVNRFAVALMPDSGGHPRKPIAGVDAPPPHLLLVARRMTRPGEHMALTTYTPVITVFAAGREWTLERAADLQTLWDNMVEADFGDDERLPYWTELWPSSLVLADWLHDNAGRIRGRTCLDMGCGLGLCSLVGQWLGARVTGMDYEPEALFHARRNAERNRVPQPLWTVMDWRAPAVRRHAADLVWGGDIMYERRFVTPVLDFLDHVLAPCGAAWVAEPGRTVYNHFRETLDARGWHARRVLSSETASLYEQPESVTVHLWEITRLEHHHHHH | failed
MGTITGEFTEHSAEAIAAMLSYIVQTEYEKKQLAKDTLQKYEEVVFLSQFANAVATCTGLQELIEVIRAEIRQVISVDEIFLYLYDQSQDSLTPLLYKTEESLQNFKAIEKIVERVLKLNQVEVIDDIQNDQDYLNQPSKIRSLLCYSLTVQNSIIGVLGLAHYQVKHFDSSDLNLFSTLTGQVAAAIRTAQYYETIKNYSQTLEIRLEHHHHHH | failed
MGTKKNFVLDTNVILHDYNCLKNFQENDIYLPIVVLEELDKFKKGNEQINYNAREFVRELDLITDDSLFTHGAPLGEGLGKLFIVTGDSEAPKVHESFPARKPDHQILAVAEYLARKYPKMKNILVTKDVNLRMKARSIGILCEDYITDKVVNVDIFE | failed
MGTPGEGLGRCSHALIRGVPESLASGEGAGAGLPALDLAKAQREHGVLGGKLRQRLGLQLLELPPEESLPLGPLLGDTAVIQGDTALITRPWSPARRPEVDGVRKALQDLGLRIVEIGDENATLDGTDVLFTGREFFVGLSKWTNHRGAEIVADTFRDFAVSTVPVSGPSHLRGLCGMGGPRTVVAGSSDAAQKAVRAMAVLTDHPYASLTLPDDAAADCLFLRPGLPGVPPFLLHRGGGDLPNSQEALQKLSDVTLVPVSCSELEKAGAGLSSLCLVLSTRPHS | failed
MGTPVVWEGNIGNPPEHKSFPNGNNEPRQLLRLNVMFDNSIPDGSGGYKDRGGFWANVEWWHPDAERFAQLFSKGMRVVVTGRAIMDTWKDKETGDDVWALKVEANRVAILPHRVNQVTMTQSNNTGQRQNAQQNNRPERQQNSAQQPGQHTDDLSHYGNGFDDDIPVLEHHHHHH | not failed
MGTRGNEEEEDWFSDAREEVSSVSDCNSEVADDFVQATGDLDLWTMNPESVTNRRQKFFQSMGFSFKKRDFDLDLDLLGDSSSDHIPVSKQLTSVSETDHEEEEKEEKLLRNESTSSGSSVSSFSTASLAEAFSFRGSFQNRAKNIDDQILLTRDYSSNSSSIAEGLSESDSSRFDSYGDLPNSPMSRYEESPKKGAKGWLKKLGVLTHVLDKTEECTDGESTRSSIRRQLTRVQSFKKQFKELSSLCVGQEFSAHDGSIVVMKFSHDGKYLASAGEDCVVRVWNIIEDERRDNEFEVAESDSSCVYFGMNDKSQIEPLKTENEKIEKSRGLLRKKSESTCAVLPSKVFSISETPQHEFRGHTGEILDLSWSEKGFLLSSSVDETVRLWRVGSSDECIRVFSHKSFVTCVAFNPVDDNYFISGSIDGKVRIWDVSQFRVVDYTDIRQIVTALCYRPDGKGAVVGSMTGECRFYHTTDNQLQLDRDISLHGKKKVPNKRITGFQFFPGDSDKVMVTSADSQIRIICGVDTICKLKKASSLRTTLMSPTFASFTSDGKHIVSTIEESGIHVWDFSQPNKKASSQKPKTIRSYEGFLSRNVSVAIPWLGQGKEDSIIADLEKSFAHFPVPLDYFSPMKGATTWPEEKLGVVAGTAAAAVSATVSSRSKLRLLKSVCQNVHGSTPHLWGLVIVTATWDGSIRVFHNYGLPIRV | failed
MGTVMDVLKGDNRFSMLVAAIQSAGLTETLNREGVYTVFAPTNEAFRALPPRERSRLLGDAKELANILKYHIGDEILVSGGIGALVRLKSLQGDKLEVSLKNNVVSVNKEPVAEPDIMATNGVVHVITNVLQP | not failed
MGVALRPLLAEYKESPGWDGLGGIAAVDAFNALYQFLSGIRQADGAPLMDGQGRITSHLSGLLFRNANLIEKNITPIYVFDGKPPVFKASTLSKRREVRENAADAWEKALKEGDEESARKYAMASSKIDAFIIDSSKELLSALGIAWIQAPEEGEAQSSFMTKNGDVTYAVSQDYDSLLFGAPDLVRNITVSGKKRIRGKVLSVYPERLRLEEVLTGLSVTQEELIQIALLIGTDYNSGVPGVGPKTAVKIVREGKFYDRIGESENAAEPDQLIGYFMDPPVERSYNIESRSPDPDRVIDLLCGEHGFTQERVEAGLERLGAKKGQATLDAWF | failed
MGVARPNFFIVGAAKCGTSSLDRYLSQHPDIYIPPKKEAHFFSIPDFPERFTGPGDEGMNLYTIRDEDAYMRLFDGVRGERAVGEASVFYLFYPGTAQRMYDAYPDAKILIMLRNPVDRAFSAYMHLVRDERETLSFRESLAKEEERIRQHYEPLWYYRAVGLYAAQVKRYLDVFGREQVKVILFEEFARDPVQVVRDCCAFLGVSTDFVPDTSIRHNESGVPKSRSLYNFIAKPNALKEIVKPFIPAAVRERLGNRAKSMVLGRMEMEPDLREELTAFFAPDVARLEALIHRDLSAWRRPARAAGSQ | not failed
MGVFDKFLDIMKLNDDEYDDDDFYDDDFEDDDFDEKPHRSIFGNKKSRSDDFDDFDMDEDKHLAPSSGNKVTPMRQPAARRGVNMEVCVVKPTSVDDSREITETLLAGRTVILNLEGMDLEIAQRIIDFISGATFAISGNLQKISNYIFLVTPTNVDILEHHHHHH | not failed
MGVLQRFERRLEGMIEGTFARAFKSELQPVEVASNVQREMDERAAIVAQGRTLVPNDFVVELSASDRERLAVYADNLGQELSKLAREYATEQGYSFVGPVRVRFETADDLQTGRFRVRSAVIRGDTVKDGEIIKPVTDHPRRGSVIPGRPRLLLSPGGAAADGSLTAQGAQQAYELTSEVTLLGRGTDCDLRLVDNGVSRHHAEIRLEGNEAILVDLNSTNGTFVNGQQVQRARLVDGSRISLGRTTMTFRRD | failed
MGVLTTFISQKALVGGYDNTIEPGVVILSGATITCNVSIGQGTFINKSTVISHDVRIGRYCEVSPGAKVLGRAIIGDRTEIGANAVILPDVIVGADCKIGAGAVVTRNIDSHTTVAGVPARSITKSSNNAFKLKSKIRNLLYHIRIADFRKLREYNHYVFGLEHHHHHH | failed
